± gives the standard deviation of the averaged measurements.
Test system: ATP
Test: switch fluorescence ratio, 500 uM ATP over buffer (Cy3 cluster intensity, sum of 5 cycles each) (fold (ratio)); higher = stronger signal-on switching upon ATP binding; sequences stand for … in TCGTCGGCAGCGTCAGATGTGTATAAGAGACAGTTTTTTTTTTTTTTTTTTTTTTTTT…TC
Settings: aptamer strand: ATP DNA aptamer (quencher-CACCTGGGGGAGTATTGCGGAGGAAGG + anchor), 100 nM annealed; ATP concentration: 500 uM
Method in brief: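 Clusters with intensities outside 100-1000 RFU were excluded. The remaining Cy3-labelled switching-strand clusters on a modified Illumina MiSeq flow-cell had been annealed to 100 nM quencher-labelled ATP aptamer and imaged in selection buffer, then after 15 min with 500 uM ATP at 22 °C, for five cycles separated by NaOH stripping and re-annealing. The fluorescence ratio, averaged per switch-domain sequence, is each cluster's summed target-cycle Cy3 intensity over its summed buffer-cycle Cy3 intensity.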
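Note: ATP exposure 15 min at 22 °C before imaging.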

Sequence	switch fluorescence ratio
GGTACGAAAG	1.01 ± 0.026
GGTACGATGG	1.01 ± 0.015
GGTACTATAG	1.034 ± 0.0066
GGTACTCGTA	1.01 ± 0.039
GGTACTTCGA	0.9938 ± 0.0015
GGTAGATATG	1.021 ± 0.0078
GGTAGATCGG	1.004 ± 0.0061
GGTAGGAACC	1.01 ± 0.021
GGTAGGCCTG	0.989 ± 0.056
GGTAGGCGGG	0.959 ± 0.018
GGTAGGCTGC	0.986 ± 0.018
GGTAGGGGCG	1.03 ± 0.031
GGTAGGGGTA	1.03 ± 0.084
GGTAGGGGTC	1.01 ± 0.056
GGTAGGGGTG	1.07 ± 0.033
GGTAGTGGGA	1 ± 0.046
GGTAGTGGGG	0.987 ± 0.021
GGTATAAATT	0.939 ± 0.011
GGTATAAGAT	1.01 ± 0.013
GGTATACTGA	1.05 ± 0.049
GGTATAGGGG	0.995 ± 0.054
GGTATAGGTC	1.05 ± 0.011

Sequence	switch fluorescence ratio
GGTATATATG	0.995 ± 0.055
GGTATATCTG	1.01 ± 0.039
GGTATATGTG	1 ± 0.025
GGTATCACCT	1.04 ± 0.034
GGTATCTCGA	1.03 ± 0.044
GGTATCTGAT	1.03 ± 0.02
GGTATGGAGG	0.988 ± 0.038
GGTATGGCGA	0.939 ± 0.048
GGTATGTAGG	0.978 ± 0.012
GGTATTATAT	0.98 ± 0.038
GGTATTATGG	1 ± 0.029
GGTATTCGGC	1.01 ± 0.017
GGTATTCTGT	0.951 ± 0.03
GGTATTGGAG	0.984 ± 0.015
GGTATTGGTA	1.13 ± 0.25
GGTATTGTTG	1 ± 0.024
GGTATTTTAA	1.04 ± 0.027
GGTCAAACCC	1.032 ± 0.0044
GGTCAAGCTC	1.02 ± 0.02
GGTCAAGGCC	0.999 ± 0.041
GGTCAAGTGG	1 ± 0.02
GGTCAAGTTG	0.961 ± 0.019

Sequence	switch fluorescence ratio
GGTCAGGGGA	0.988 ± 0.04
GGTCATAGGG	0.958 ± 0.022
GGTCATGCGG	1.01 ± 0.021
GGTCCAAAAG	1.008 ± 0.0075
GGTCCAGGAT	1.018 ± 0.0068
GGTCCATACG	1.01 ± 0.025
GGTCCCAAAA	0.981 ± 0.032
GGTCCCCAAT	1 ± 0.013
GGTCCGGCAC	1.079 ± 0.009
GGTCCGGGCT	1 ± 0.02
GGTCCTAATA	1 ± 0.026
GGTCCTCTTT	0.98275 ± 0.00076
GGTCCTGCGG	1.01 ± 0.087
GGTCCTGGCT	1.015 ± 0.01
GGTCGAAAGG	0.985 ± 0.063
GGTCGAGCTA	0.996 ± 0.042
GGTCGCGGGG	1.03 ± 0.027
GGTCGCTTGG	1.04 ± 0.061
GGTCGGGCTG	0.9942 ± 0.0047
GGTCGGGGCA	1.02 ± 0.025
GGTCGGGGGG	1.03 ± 0.037
GGTCGGGGTG	1.09 ± 0.069

Sequence	switch fluorescence ratio
GGTCGTCTTG	0.996 ± 0.04
GGTCGTGTAA	0.991 ± 0.061
GGTCGTTTTG	0.991 ± 0.025
GGTCTAAGTA	1.08 ± 0.084
GGTCTAGTCC	1.018 ± 0.0034
GGTCTATCGG	0.965 ± 0.018
GGTCTATCGT	1 ± 0.039
GGTCTCAGGT	1.03 ± 0.023
GGTCTCCTTT	0.971 ± 0.018
GGTCTGAAGT	1.008 ± 0.004
GGTCTGGGAG	1 ± 0.023
GGTCTGGGTG	1.08 ± 0.066
GGTCTGTTGT	0.99 ± 0.049
GGTCTTGTTT	0.9891 ± 0.0078
GGTCTTTTGG	0.981 ± 0.013
GGTGAAAGCT	1.04 ± 0.019
GGTGAAATTG	1 ± 0.015
GGTGAAGAGG	0.9791 ± 0.0061
GGTGAAGCCT	0.991 ± 0.047
